Assay results taken from paper PMC3792671.

Target: RepSTK1(1-269), residues 1-269 of the rolling-circle replication initiator protein RepSTK1 of plasmid pSTK1 (Geobacillus stearothermophilus (plasmid pSTK1))
Test: SEC-MALS; analytical gel filtration on Superdex S75 10/300, 50 µl protein loaded, 50 mM Tris-HCl pH 7.5, 500 mM KCl; eluate through DAWN HELIOS II MALLS detector; dimer

RepSTK1(1-269), residues 1-269 of the rolling-circle replication initiator protein RepSTK1 of plasmid pSTK1 (domain or fragment)
stoichiometry N: 2
